The record followed here is paper PMC3458569 (Nucleic Acids Research, 2012).

Where a chain is given by its changes, count along the chain named. Names and notes keep the numbering of the source.

Data set [1] deals with T1, UvrB wild type (Bacillus subtilis, UniProt P37954 1-661).
T1 sequence: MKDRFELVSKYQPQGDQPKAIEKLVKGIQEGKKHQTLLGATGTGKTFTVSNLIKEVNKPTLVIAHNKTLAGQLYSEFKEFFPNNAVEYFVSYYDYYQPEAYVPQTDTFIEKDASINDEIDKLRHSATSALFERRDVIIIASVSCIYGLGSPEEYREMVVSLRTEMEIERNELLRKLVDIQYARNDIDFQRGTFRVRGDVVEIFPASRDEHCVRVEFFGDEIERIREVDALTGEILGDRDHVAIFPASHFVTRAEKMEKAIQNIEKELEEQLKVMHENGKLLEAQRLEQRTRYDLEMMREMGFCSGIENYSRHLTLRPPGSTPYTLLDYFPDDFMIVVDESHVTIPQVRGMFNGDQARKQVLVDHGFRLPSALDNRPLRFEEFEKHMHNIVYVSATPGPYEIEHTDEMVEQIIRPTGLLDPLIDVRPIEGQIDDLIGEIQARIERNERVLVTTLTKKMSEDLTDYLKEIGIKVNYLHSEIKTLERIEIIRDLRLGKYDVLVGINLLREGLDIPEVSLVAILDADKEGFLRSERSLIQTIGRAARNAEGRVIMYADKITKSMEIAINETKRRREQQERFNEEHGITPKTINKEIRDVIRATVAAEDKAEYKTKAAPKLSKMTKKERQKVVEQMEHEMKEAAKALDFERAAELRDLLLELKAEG
In words: X-ray crystallography.

Data set [2] addresses Bacillus subtilis UvrA (Bacillus subtilis, UniProt O34863 1-957). Description: native gel or EMSA.
Data set [3] concerns the molecule itself. In words: crystal structure.
Data set [4] concerns the molecule itself. In words: DEER.
Data set [5] deals with the molecule itself. Description: cross-linking.

Bacillus subtilis UvrA, sequence (O34863 whole entry): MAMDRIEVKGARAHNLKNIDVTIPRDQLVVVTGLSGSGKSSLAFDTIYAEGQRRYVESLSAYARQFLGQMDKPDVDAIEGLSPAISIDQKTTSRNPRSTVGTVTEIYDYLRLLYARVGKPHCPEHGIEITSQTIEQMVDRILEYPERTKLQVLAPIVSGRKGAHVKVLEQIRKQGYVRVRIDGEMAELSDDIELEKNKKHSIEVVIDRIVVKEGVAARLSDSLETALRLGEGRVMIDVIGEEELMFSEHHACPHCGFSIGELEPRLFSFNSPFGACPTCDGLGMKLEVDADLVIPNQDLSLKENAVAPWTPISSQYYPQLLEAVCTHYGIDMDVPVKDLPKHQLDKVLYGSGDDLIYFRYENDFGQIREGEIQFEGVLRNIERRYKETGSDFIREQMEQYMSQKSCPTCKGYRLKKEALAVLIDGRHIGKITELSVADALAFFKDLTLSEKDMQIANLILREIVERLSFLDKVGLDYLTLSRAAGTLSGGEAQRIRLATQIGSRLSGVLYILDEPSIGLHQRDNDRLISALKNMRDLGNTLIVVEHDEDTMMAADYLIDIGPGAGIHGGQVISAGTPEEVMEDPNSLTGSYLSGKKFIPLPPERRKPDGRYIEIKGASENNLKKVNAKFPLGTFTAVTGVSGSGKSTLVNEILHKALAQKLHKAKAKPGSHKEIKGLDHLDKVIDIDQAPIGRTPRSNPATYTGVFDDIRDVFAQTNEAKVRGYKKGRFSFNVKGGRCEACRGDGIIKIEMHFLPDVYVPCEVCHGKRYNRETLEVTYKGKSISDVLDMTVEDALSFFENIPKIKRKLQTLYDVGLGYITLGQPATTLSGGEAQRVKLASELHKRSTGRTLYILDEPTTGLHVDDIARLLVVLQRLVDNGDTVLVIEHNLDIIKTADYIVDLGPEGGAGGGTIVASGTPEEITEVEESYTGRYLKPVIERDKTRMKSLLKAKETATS

With TACTGTTT (ssDNA, T-fluorescein at position 6) [TACTG(TF6)TT 8-mer], the binding result in data set [1] is listed as “binds”.

B1: Bacillus subtilis UvrB (wild type) (natural protein)
chain: T1 sequence
On to B1, for which, in data set [2], the binding result was “binds”. The “stoichiometry N” value in data set [3] was 2.

B2: Bacillus subtilis UvrB T481C mutant, spin labeled with PROXYL (natural protein)
chain: T1 sequence with T481C
modifications: nitroxide spin label 3-(2-iodoacetamido)-proxyl (PROXYL) on C481
Take B2: the binding result in data set [4] is “binds”.

B3: Bacillus subtilis UvrB T481C mutant (natural protein)
chain: T1 sequence with T481C
For the molecule B3, the binding result in data set [5] is “binds”.
